Laboratory results taken from publication PMC9352680, “A comprehensive thermodynamic model for RNA binding by the Saccharomyces cerevisiae Pumilio protein PUF4”.

Target: T1, PUF4 RNA-binding domain (Saccharomyces cerevisiae, UniProt P25339 537-888)
T1 sequence: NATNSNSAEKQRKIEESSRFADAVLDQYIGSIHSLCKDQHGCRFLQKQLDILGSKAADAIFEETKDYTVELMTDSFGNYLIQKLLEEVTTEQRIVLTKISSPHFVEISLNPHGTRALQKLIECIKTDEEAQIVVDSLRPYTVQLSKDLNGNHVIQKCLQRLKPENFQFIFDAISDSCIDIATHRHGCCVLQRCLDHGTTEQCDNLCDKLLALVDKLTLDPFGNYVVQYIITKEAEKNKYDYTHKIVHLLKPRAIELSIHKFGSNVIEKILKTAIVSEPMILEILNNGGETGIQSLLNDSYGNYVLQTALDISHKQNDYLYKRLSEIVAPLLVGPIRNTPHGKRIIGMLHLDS
Assay: Mg; RNA-MaP; 20 mM Na-HEPES pH 7.4, 30 mM KOAc, 0.75 mM MgCl2, 0.1% Tween-20, 5% glycerol, 0.1 mg/mL BSA, 2 mM DTT; 25 C; 0.0125-409.6 nM protein
Details: tags: N-His6-TEV cleaved; C-SNAP kept, Cy3B-labelled; label: tethered on chip by stalled RNA polymerase

Binder | Kd [nM]
ACAAACAUUAUAUAUAUUACAAAC (ssRNA) [Id_ii_S3_P3E.3_K3.2_C3.2_[C-2A]_H3.2_A3.1_F3.1_T3.2_[A10T]] | 33.2
ACAAACCCUAUAUAUAUGACAAAC (ssRNA) [Id_ii_S3_P3E.3_K3.2_C3.2_[T-1C]_H3.2_A3.1_F3.1_T3.2_[A10G]] | 769
ACAAACGAACACUAUACCACAAAC (ssRNA) [Id_ii_S3_P3E.4_K3.3_C3.2_[C-2G]_[T-1A]_H3.3_A3.1_F3.1_T3.2_[T9C]_[A10C]] | > 2300
ACAAACGAACACUAUAACACAAAC (ssRNA) [Id_ii_S3_P3E.4_K3.3_C3.2_[C-2G]_[T-1A]_H3.3_A3.1_F3.1_T3.2_[T9A]_[A10C]] | > 2300
ACAAACCGUAUAUAUACCACAAAC (ssRNA) [Id_ii_S3_P3E.3_K3.2_C3.2_[T-1G]_H3.2_A3.1_F3.1_T3.2_[T9C]_[A10C]] | 1540
ACAAACCUUAUAUAUAUCACAAAC (ssRNA) [Id_ii_S3_P3E.3_K3.2_C3.2_H3.2_A3.1_F3.1_T3.2_[A10C]] | 396
ACAAACGCACACUAUAAUACAAAC (ssRNA) [Id_ii_S3_P3E.4_K3.3_C3.2_[C-2G]_[T-1C]_H3.3_A3.1_F3.1_T3.2_[T9A]_[A10T]] | > 2300
ACAAACGGACACUAUAUUACAAAC (ssRNA) [Id_ii_S3_P3E.4_K3.3_C3.2_[C-2G]_[T-1G]_H3.3_A3.1_F3.1_T3.2_[A10T]] | 1380
ACAAACAAUAUAUAUAUUACAAAC (ssRNA) [Id_ii_S3_P3E.3_K3.2_C3.2_[C-2A]_[T-1A]_H3.2_A3.1_F3.1_T3.2_[A10T]] | 94
UCUCUUUGUAAUAUUGUCUCUU (ssRNA) [Ic_S1_P5E.1_K5.1_C5.1_H5.1_A5.1_[T5A]_F5.1_[A10G]_T5.1] | 14.9
UCUCUUUGUACUAUUCUCUCUU (ssRNA) [Ib_S1_P5E.1_K5.1_C5.1_H5.1_A5.1_[T5C]_F5.1_[A10C]_T5.1] | 12.5
ACAAACAUUAUAUAUAACACAAAC (ssRNA) [Id_ii_S3_P3E.3_K3.2_C3.2_[C-2A]_H3.2_A3.1_F3.1_T3.2_[T9A]_[A10C]] | 708
ACAAACCUUAUAUAUAUGACAAAC (ssRNA) [Id_ii_S3_P3E.3_K3.2_C3.2_H3.2_A3.1_F3.1_T3.2_[A10G]] | 632
ACAAACCGUAUAUAUAAGACAAAC (ssRNA) [Id_ii_S3_P3E.3_K3.2_C3.2_[T-1G]_H3.2_A3.1_F3.1_T3.2_[T9A]_[A10G]] | 796
ACAAACCCUAUAUAUACUACAAAC (ssRNA) [Id_ii_S3_P3E.3_K3.2_C3.2_[T-1C]_H3.2_A3.1_F3.1_T3.2_[T9C]_[A10T]] | 45.5
ACAAACGCACACUAUACAACAAAC (ssRNA) [Id_ii_S3_P3E.4_K3.3_C3.2_[C-2G]_[T-1C]_H3.3_A3.1_F3.1_T3.2_[T9C]] | > 2300
ACAAACGCACACUAUAGGACAAAC (ssRNA) [Id_ii_S3_P3E.4_K3.3_C3.2_[C-2G]_[T-1C]_H3.3_A3.1_F3.1_T3.2_[T9G]_[A10G]] | > 2300
UCUCUUUGUAUUUUAAUCUCUU (ssRNA) [Ib_S1_P5E.1_K5.1_C5.1_H5.1_A5.1_[A7T]_F5.1_[T9A]_T5.1] | 3.42
ACAAACGGACACUAUAAAACAAAC (ssRNA) [Id_ii_S3_P3E.4_K3.3_C3.2_[C-2G]_[T-1G]_H3.3_A3.1_F3.1_T3.2_[T9A]] | > 2300
UCUCUUUGUAGUAUUAUCUCUU (ssRNA) [Ia_S1_P5E.1_K5.1_C5.1_H5.1_A5.1_[T5G]_F5.1_T5.1] | 30

Binder | Kd [nM]
ACAAACCUUAUAUAUAGCACAAAC (ssRNA) [Id_ii_S3_P3E.3_K3.2_C3.2_H3.2_A3.1_F3.1_T3.2_[T9G]_[A10C]] | 144
ACAAACCAUAUAUAUAAGACAAAC (ssRNA) [Id_ii_S3_P3E.3_K3.2_C3.2_[T-1A]_H3.2_A3.1_F3.1_T3.2_[T9A]_[A10G]] | 546
ACAAACCGUAUAUAUAGAACAAAC (ssRNA) [Id_ii_S3_P3E.3_K3.2_C3.2_[T-1G]_H3.2_A3.1_F3.1_T3.2_[T9G]] | 366
ACAAACAUUAUAUAUAUCACAAAC (ssRNA) [Id_ii_S3_P3E.3_K3.2_C3.2_[C-2A]_H3.2_A3.1_F3.1_T3.2_[A10C]] | 450
ACAAACCUUAUAUAUAUUACAAAC (ssRNA) [Id_ii_S3_P3E.3_K3.2_C3.2_H3.2_A3.1_F3.1_T3.2_[A10T]] | 28.1
ACAAACCAUAUAUAUAGCACAAAC (ssRNA) [Id_ii_S3_P3E.3_K3.2_C3.2_[T-1A]_H3.2_A3.1_F3.1_T3.2_[T9G]_[A10C]] | 328
ACAAACGAACACUAUAAUACAAAC (ssRNA) [Id_ii_S3_P3E.4_K3.3_C3.2_[C-2G]_[T-1A]_H3.3_A3.1_F3.1_T3.2_[T9A]_[A10T]] | > 2300
ACAAACGAACACUAUACAACAAAC (ssRNA) [Id_ii_S3_P3E.4_K3.3_C3.2_[C-2G]_[T-1A]_H3.3_A3.1_F3.1_T3.2_[T9C]] | > 2300
ACAAACACUAUAUAUAUAACAAAC (ssRNA) [Id_ii_S3_P3E.3_K3.2_C3.2_[C-2A]_[T-1C]_H3.2_A3.1_F3.1_T3.2] | 873
ACAAACGAACACUAUAGCACAAAC (ssRNA) [Id_ii_S3_P3E.4_K3.3_C3.2_[C-2G]_[T-1A]_H3.3_A3.1_F3.1_T3.2_[T9G]_[A10C]] | > 2300
UCUCUUUGUAGUAUUGUCUCUU (ssRNA) [Ic_S1_P5E.1_K5.1_C5.1_H5.1_A5.1_[T5G]_F5.1_[A10G]_T5.1] | 81.1
ACAAACAUUAUAUAUAGUACAAAC (ssRNA) [Id_ii_S3_P3E.3_K3.2_C3.2_[C-2A]_H3.2_A3.1_F3.1_T3.2_[T9G]_[A10T]] | 67.5
ACAAACGUACACUAUACCACAAAC (ssRNA) [Id_ii_S3_P3E.4_K3.3_C3.2_[C-2G]_H3.3_A3.1_F3.1_T3.2_[T9C]_[A10C]] | 105
ACAAACGAACACUAUAUCACAAAC (ssRNA) [Id_ii_S3_P3E.4_K3.3_C3.2_[C-2G]_[T-1A]_H3.3_A3.1_F3.1_T3.2_[A10C]] | > 2300
ACAAACCAUAUAUAUAACACAAAC (ssRNA) [Id_ii_S3_P3E.3_K3.2_C3.2_[T-1A]_H3.2_A3.1_F3.1_T3.2_[T9A]_[A10C]] | 724
ACAAACCUUAUAUAUAUAACAAAC (ssRNA) [Id_ii_S3_P3E.3_K3.2_C3.2_H3.2_A3.1_F3.1_T3.2] | 500
ACAAACACUAUAUAUAAAACAAAC (ssRNA) [Id_ii_S3_P3E.3_K3.2_C3.2_[C-2A]_[T-1C]_H3.2_A3.1_F3.1_T3.2_[T9A]] | 1080
ACAAACAAUAUAUAUACGACAAAC (ssRNA) [Id_ii_S3_P3E.3_K3.2_C3.2_[C-2A]_[T-1A]_H3.2_A3.1_F3.1_T3.2_[T9C]_[A10G]] | 1290
ACAAACCCUAUAUAUAUUACAAAC (ssRNA) [Id_ii_S3_P3E.3_K3.2_C3.2_[T-1C]_H3.2_A3.1_F3.1_T3.2_[A10T]] | 32.7
ACAAACCGUAUAUAUAAAACAAAC (ssRNA) [Id_ii_S3_P3E.3_K3.2_C3.2_[T-1G]_H3.2_A3.1_F3.1_T3.2_[T9A]] | 697

Binder | Kd [nM]
ACAAACAUUAUAUAUAAUACAAAC (ssRNA) [Id_ii_S3_P3E.3_K3.2_C3.2_[C-2A]_H3.2_A3.1_F3.1_T3.2_[T9A]_[A10T]] | 381
ACAAACAAUAUAUAUAAGACAAAC (ssRNA) [Id_ii_S3_P3E.3_K3.2_C3.2_[C-2A]_[T-1A]_H3.2_A3.1_F3.1_T3.2_[T9A]_[A10G]] | 1090
ACAAACACUAUAUAUAUGACAAAC (ssRNA) [Id_ii_S3_P3E.3_K3.2_C3.2_[C-2A]_[T-1C]_H3.2_A3.1_F3.1_T3.2_[A10G]] | 572
ACAAACGGACACUAUACUACAAAC (ssRNA) [Id_ii_S3_P3E.4_K3.3_C3.2_[C-2G]_[T-1G]_H3.3_A3.1_F3.1_T3.2_[T9C]_[A10T]] | 2160
ACAAACACUAUAUAUAUCACAAAC (ssRNA) [Id_ii_S3_P3E.3_K3.2_C3.2_[C-2A]_[T-1C]_H3.2_A3.1_F3.1_T3.2_[A10C]] | 541
ACAAACACUAUAUAUAAGACAAAC (ssRNA) [Id_ii_S3_P3E.3_K3.2_C3.2_[C-2A]_[T-1C]_H3.2_A3.1_F3.1_T3.2_[T9A]_[A10G]] | 450
ACAAACCCUAUAUAUACCACAAAC (ssRNA) [Id_ii_S3_P3E.3_K3.2_C3.2_[T-1C]_H3.2_A3.1_F3.1_T3.2_[T9C]_[A10C]] | 614
ACAAACACUAUAUAUACUACAAAC (ssRNA) [Id_ii_S3_P3E.3_K3.2_C3.2_[C-2A]_[T-1C]_H3.2_A3.1_F3.1_T3.2_[T9C]_[A10T]] | 43.8
UCUCUUUGUAUUGUAAUCUCUU (ssRNA) [Ib_S1_P5E.1_K5.1_C5.1_H5.1_A5.1_[A7G]_F5.1_[T9A]_T5.1] | 10.6
ACAAACAUUAUAUAUAUAACAAAC (ssRNA) [Id_ii_S3_P3E.3_K3.2_C3.2_[C-2A]_H3.2_A3.1_F3.1_T3.2] | 462
ACAAACGCACACUAUAAGACAAAC (ssRNA) [Id_ii_S3_P3E.4_K3.3_C3.2_[C-2G]_[T-1C]_H3.3_A3.1_F3.1_T3.2_[T9A]_[A10G]] | > 2300
ACAAACCUUAUAUAUAACACAAAC (ssRNA) [Id_ii_S3_P3E.3_K3.2_C3.2_H3.2_A3.1_F3.1_T3.2_[T9A]_[A10C]] | 513
ACAAACCUUAUAUAUACCACAAAC (ssRNA) [Id_ii_S3_P3E.3_K3.2_C3.2_H3.2_A3.1_F3.1_T3.2_[T9C]_[A10C]] | 845
ACAAACACUAUAUAUACAACAAAC (ssRNA) [Id_ii_S3_P3E.3_K3.2_C3.2_[C-2A]_[T-1C]_H3.2_A3.1_F3.1_T3.2_[T9C]] | 735
ACAAACAAUAUAUAUAAUACAAAC (ssRNA) [Id_ii_S3_P3E.3_K3.2_C3.2_[C-2A]_[T-1A]_H3.2_A3.1_F3.1_T3.2_[T9A]_[A10T]] | 98.1
ACAAACAUUAUAUAUAAAACAAAC (ssRNA) [Id_ii_S3_P3E.3_K3.2_C3.2_[C-2A]_H3.2_A3.1_F3.1_T3.2_[T9A]] | 868
ACAAACCAUAUAUAUAAAACAAAC (ssRNA) [Id_ii_S3_P3E.3_K3.2_C3.2_[T-1A]_H3.2_A3.1_F3.1_T3.2_[T9A]] | 1420
ACAAACCCUAUAUAUAGUACAAAC (ssRNA) [Id_ii_S3_P3E.3_K3.2_C3.2_[T-1C]_H3.2_A3.1_F3.1_T3.2_[T9G]_[A10T]] | 392
